Results published in PMC9241078.

Tests used:
Assay in all cases: potentiometry
Glu117 = details: 298 K, 0.1 M KCl, none (peptide dissolved in 4 x 10^-3 M HCl)
Cterm120 = details: 298 K; 0.1 M KCl; none (peptide dissolved in 4 x 10^-3 M HCl); metal-free peptide. Ligand concentration is 0.5 mM in Methods, but the Table 3 footnote says 0.001 M.
[1] = target: Glu132 (UniProt position 132, …--); details: 298 K; 0.1 M KCl; none (peptide dissolved in 4 x 10^-3 M HCl); metal-free peptide. Ligand concentration is 0.5 mM in Methods, but the Table 3 footnote says 0.001 M.
[2] = target: Cterm135 (UniProt position 135, AGEDAI-----); details: 298 K; 0.1 M KCl; none (peptide dissolved in 4 x 10^-3 M HCl); metal-free peptide. Ligand concentration is 0.5 mM in Methods, but the Table 3 footnote says 0.001 M.
[3] = metal-free peptide. Ligand concentration is 0.5 mM in Methods, but the Table 3 footnote says 0.001 M.

Protein | pKa (Glu117; [3]) | pKa (Cterm120) | pKa (Glu117; Ni(II)-bound, metal to ligand 1:1 (NiH4L to NiH3L step)) | pKa [1] | pKa [2]
DHHLAAIVVDAIAHASEDRR [BigR4 alpha5 domain peptide mutant H106A (L3) (Mycobacterium smegmatis; H106A)] | 5,91 | 2,97 |  |  | 
DAHLAHIVVDAIAHASEDRR [BigR4 alpha5 domain peptide mutant H102A (L2) (Mycobacterium smegmatis; H102A)] | 6.10 | 3.35 | 5.61 |  | 
DHHLAHIVVDAIAHASEDRR | 5.80 | 3.23 |  |  | 
DHHLAHIVLDAVAHAGEDAI |  |  |  | 5.74 | 3.16
